Measured values taken from the nanobody polyreactivity screen of Harvey et al. (2022).

Experiment: yeast display, Sf9 membrane polyspecificity reagent, FACS + sequencing; frameworks hold sequencing errors
Outline: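 A synthetic nanobody library was expressed on Saccharomyces cerevisiae BJ5465 by galactose induction for 36–48 hours. The library was stained for 1 hour at 4 °C with 10% biotinylated, detergent-solubilized Sf9 membrane reagent and enriched with streptavidin microbeads before FACS. Low and high (top ~1%) gates were set on anti-HA fluorescence for expression and streptavidin fluorescence for reagent binding, and each polyreactivity label reflects the gate of origin.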

Sequence	polyreactivity (PSR sort gate)
QVQLVESGGGLVQAGGSLRLSCAASGGPFTYYTMGCYRQAPGKERELVAAISTGGRTYYADSVKGRFTISRDNAKNTVYLQMNCLKAEATAVYYCYPLYDETDVLGEFDYWGQGTQVTVSS	low polyreactivity
QVQLVESGGGLVHAGGSLRLSCAASGSTEYNAMGWYRQSPGTQRELVAVITDSDGSTYYADSVKGRYTISRDNAKHTVYLQMNSLKREDTAVYYCAADDYAYSYGYWLTYDYWGQGPQVTVSS	low polyreactivity
QVQLVESGGGLDQAGGSLRLSCAASGSIFYRNAIGWYRQAPGKDREFVAAITLRGGSTYYADSVKGRFTISRDNAKNTVYLQMNSLKPEDTAVYYCAADLLLYSSQDNDYWGQGTQVTVSS	low polyreactivity
QVQHVESGGGLVQAGGSLRLSCAASGFIFARNAMGWYRQARGKERELVAVISTRGRTYYADSVKGRFTFSRDNAKNTVYLQMNSLKPEDTAVYYCNADKVIGYDYWGQGTQVTVSS	high polyreactivity
QVQLVESGGGLVQAGGSLRLSCAASGSIFTDNAMGWYRQAPGKERELVAAITGRGGNTYYADSVKGRFPISRDIAKNPVYLQMNSLKPEDTAVYYCAARIFRTRKPLGYWGQGTQVTVSS	high polyreactivity
QVQLVESGGGLVQAGGSLRLSCAASGFTFGYYAMGWYRQAPGKERELVAAITYDGDITYYADSVKGRFTISRDNAKNTVYLQMNSLKPEVTAVYYCNRDVLTFNYDYWGQGTQVTVSS	low polyreactivity
QVQLVESGGGLDQAGGSLRLSCAAYGNTFRGYTMGWYRQAPGKEREFVAAISWSGGRTNYADSVKGRFTISRDNAKNTVYLQMNSLKPEDTAVYYCARDYRARRWGMDYWGQGTQVTVSS	high polyreactivity
QEQLQESGSGLVQAGGSLRLSCAASGNIFQDWFMGWYRQAPGKERELVAAISPGANTNYADSVKGRFTISRDNAKNSVYLQMNSLKPEDTAVYYCAAESLFDDYYGYWGQGTQVTVSS	low polyreactivity
QDQLVESGGGLVQAGGSLRLSCAASGRTFIRNAMGWYRQAPGKERELVAAITNSGGSTYYADSVKGRFTISRDNAKNTVYLQMNSLNPEDTAVYDCNRVYRSHRPYTYPFSYDYWGQGTQVTVSS	high polyreactivity
QVQIVESGGVLVQAGGSLRLSCAASGLTFVQYDMGWYRHAPGKERELVADISGSAGDTYYADSVKGRFTISRDNAKKTVYLQMNSLKPEDTAVYYCNAYGAEYLQYGWRDYWGQGTQLTVSS	low polyreactivity
QVHLVESGGGLVQAGGSLRLSCAASGSIFFVYAMGWYRQAPGKERELVAAISNDGSTNYADSVKGRFTISRDNAKNTVYLQMNSLKPEDTAVYYCAADPSLRQYAYFDYDYWGQGTQVTVSS	low polyreactivity
QVQLVESGGGIVQAGGSLRLRCAASGSTFYVYHMGWDRPAPGKERELVAAISSGAGSTYYADSVKGRFTISRDNAKNTVYLQMNSLKRKIPRSITALLFTVNGGGSRSHDYWAQGTQVTVSS	low polyreactivity
QVQLVESGGGLVQAGGSLRLSCAASGLNFRKYAMGWYRQAPGKERELVAGISSGGSTYYADSVKGRFTISRDNAKNTVYLQMNSLKPEDTAVYYCAAKALRTMYYWGQGTQVTVSS	high polyreactivity
QVQLVESGGGLVQAGGSLRLSCAASGGIFLKYAMAWYRQAPGKERELVASINTGVRTYYADSVKGRFTISRDNAKNTVYLQMNSLKPEDTAVYYCYADGGGPRKYTRTRGHWGQGTQVTVSS	low polyreactivity
QVQLVESGGGLVQAGGSLRLSCPASGSTFGPYAMGWYRQAPGKERELVAAISSTGGSTYYADSVKGRFTISRDNAKNTVYLQMNSLKPEDTAVYYCAAYSTYARGYWGQGTQVTVSS	high polyreactivity
QVQLVESGGGLVQAGGSLRLSCAASGSIFRDYVMGWYRQAPGKERELVAAISGNDGSTYYADSVKGRFTISRDNAKNTVYLQLNSLKPEDTAVYYCNADEASTFPQFYSYLDFDYWGQGTQVTVSS	low polyreactivity
QVQLVDSGGGLVQAGGSLRLTCAASGIIIPVYAMGWYRQAPGKERELVAAISSGGSTYYADSVKGRFTISRDNAKNTVYLQINSLKPEDTAVYYCAARKVRYPYRWYDYWGQGTQVTVSS	high polyreactivity
